Assay results as given in PMC9482650, “Quantitative fragmentomics allow affinity mapping of interactomes” (Nature Communications, 2022).

Assays:
Experiment in all cases: holdup assay
Parameters in all cases: key: below the threshold = too weak to quantify, mostly under pKd 3.1 to 4
MAGI2_3, Q86UL8 = target: MAGI2_3, Q86UL8
LNX2_2, Q8N448 = target: T1, LNX2_2, Q8N448
T1 sequence (Q8N448 334-432, limits assumed, looked up): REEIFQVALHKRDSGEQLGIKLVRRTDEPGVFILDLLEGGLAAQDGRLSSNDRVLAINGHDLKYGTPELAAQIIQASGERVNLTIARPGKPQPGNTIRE

SCRIB_3, Q14160 = target: SCRIB_3, Q14160
PTPN13_1, Q12923 = target: T2, PTPN13_1, Q12923
T2 sequence (Q12923 1088-1188, limits assumed, looked up): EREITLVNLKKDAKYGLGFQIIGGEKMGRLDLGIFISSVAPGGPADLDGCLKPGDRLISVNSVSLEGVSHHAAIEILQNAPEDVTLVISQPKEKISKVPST

SCRIB_2, Q14160 = target: SCRIB_2, Q14160
DLG3_3, Q92796 = target: T3, DLG3_3, Q92796
T3 sequence (Q92796 374-475, limits assumed, looked up): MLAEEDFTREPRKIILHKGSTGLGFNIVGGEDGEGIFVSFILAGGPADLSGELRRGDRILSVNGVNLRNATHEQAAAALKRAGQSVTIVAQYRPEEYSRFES

GRIP1_5, Q9Y3R0 = target: T4, GRIP1_5, Q9Y3R0
T4 sequence (Q9Y3R0 568-668, limits assumed, looked up): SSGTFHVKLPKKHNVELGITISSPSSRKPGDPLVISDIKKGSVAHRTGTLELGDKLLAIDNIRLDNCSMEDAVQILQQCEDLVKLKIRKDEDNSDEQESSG

LNX2_3, Q8N448 = target: T5, LNX2_3, Q8N448
T5 sequence (Q8N448 463-564, limits assumed, looked up): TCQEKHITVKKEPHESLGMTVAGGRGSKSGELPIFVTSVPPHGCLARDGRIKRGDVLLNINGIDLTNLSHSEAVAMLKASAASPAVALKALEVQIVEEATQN

GRIP2_6, Q9C0E4 = target: GRIP2_6, Q9C0E4
MPP2, Q14168 = target: T6, MPP2, Q14168
T6 sequence (Q14168 180-250, limits assumed, looked up): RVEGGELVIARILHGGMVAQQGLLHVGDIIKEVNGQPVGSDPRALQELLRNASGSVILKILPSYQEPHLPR

DFNB31_3, Q9P202 = target: T7, DFNB31_3, Q9P202
T7 sequence (Q9P202 811-907, limits assumed, looked up): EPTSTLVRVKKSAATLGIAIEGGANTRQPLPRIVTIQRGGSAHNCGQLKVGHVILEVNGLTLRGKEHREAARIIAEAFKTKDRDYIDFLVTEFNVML

LIN7C, Q9NUP9 = target: T8, LIN7C, Q9NUP9
T8 sequence (Q9NUP9 88-185, limits assumed, looked up): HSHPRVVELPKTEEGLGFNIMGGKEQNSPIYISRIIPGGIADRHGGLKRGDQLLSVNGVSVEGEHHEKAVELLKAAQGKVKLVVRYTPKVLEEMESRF

MAGI1_2, Q96QZ7 = target: MAGI1_2, Q96QZ7
LNX1_1, Q8TBB1 = target: LNX1_1, Q8TBB1
TJP2_1, Q9UDY2 = target: TJP2_1, Q9UDY2
LIMK2, P53671 = target: LIMK2, P53671
PTPN3, P26045 = target: PTPN3, P26045
DVL3, Q92997 = target: T9, DVL3, Q92997
T9 sequence (Q92997 244-331, limits assumed, looked up): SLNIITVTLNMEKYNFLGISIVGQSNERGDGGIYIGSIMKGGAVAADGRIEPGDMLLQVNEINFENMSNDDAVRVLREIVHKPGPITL

NHERF3_1, Q5T2W1 = target: T10, NHERF3_1, Q5T2W1
T10 sequence (Q5T2W1 4-100, limits assumed, looked up): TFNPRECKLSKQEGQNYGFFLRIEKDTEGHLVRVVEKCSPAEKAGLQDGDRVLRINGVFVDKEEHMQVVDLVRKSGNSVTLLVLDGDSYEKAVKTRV

FRMPD3, Q5JV73 = target: FRMPD3, Q5JV73
GRIP1_7, Q9Y3R0 = target: T11, GRIP1_7, Q9Y3R0
T11 sequence (Q9Y3R0 999-1096, limits assumed, looked up): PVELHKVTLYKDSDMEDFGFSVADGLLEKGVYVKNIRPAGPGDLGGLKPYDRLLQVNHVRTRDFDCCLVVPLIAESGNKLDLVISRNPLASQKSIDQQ

NHERF4_1, Q86UT5-2 = target: NHERF4_1, Q86UT5-2
DFNB31_2, Q9P202 = target: T12, DFNB31_2, Q9P202
T12 sequence (Q9P202 274-371, limits assumed, looked up): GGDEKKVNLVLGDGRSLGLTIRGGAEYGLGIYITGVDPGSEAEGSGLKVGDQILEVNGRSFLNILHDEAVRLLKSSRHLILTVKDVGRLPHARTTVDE

DLG1_1, Q12959 = target: DLG1_1, Q12959
IL16_3, Q14005 = target: IL16_3, Q14005
Inadl_4, Q8NI35 = target: Inadl_4, Q8NI35
[1] = plain residues with an end cap or a label only (N-terminal biotin on a linker: ado-ado)
[2] = plain residues with an end cap or a label only (N-terminal biotin on a linker: ahx)

MAGI2_3, Q86UL8, sequence (Q86UL8 600-682): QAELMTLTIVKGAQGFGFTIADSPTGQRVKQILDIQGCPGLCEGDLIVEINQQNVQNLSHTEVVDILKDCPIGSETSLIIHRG
Inadl_4, Q8NI35, sequence (Q8NI35 547-651): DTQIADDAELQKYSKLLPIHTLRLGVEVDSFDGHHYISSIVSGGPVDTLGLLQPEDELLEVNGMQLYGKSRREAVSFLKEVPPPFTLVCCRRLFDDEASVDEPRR
PTPN3, P26045, sequence (P26045 505-587): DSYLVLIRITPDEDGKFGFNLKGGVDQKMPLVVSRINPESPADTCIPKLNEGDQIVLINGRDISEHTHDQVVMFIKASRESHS
FRMPD3, Q5JV73, sequence (Q5JV73 12-100): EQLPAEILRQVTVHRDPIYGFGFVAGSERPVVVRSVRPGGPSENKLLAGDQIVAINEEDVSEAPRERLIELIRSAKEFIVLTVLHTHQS
TJP2_1, Q9UDY2, sequence (Q9UDY2 24-128): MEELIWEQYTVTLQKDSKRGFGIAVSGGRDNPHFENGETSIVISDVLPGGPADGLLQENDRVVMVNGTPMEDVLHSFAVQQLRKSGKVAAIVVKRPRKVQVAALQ
MAGI1_2, Q96QZ7, sequence (Q96QZ7 456-580): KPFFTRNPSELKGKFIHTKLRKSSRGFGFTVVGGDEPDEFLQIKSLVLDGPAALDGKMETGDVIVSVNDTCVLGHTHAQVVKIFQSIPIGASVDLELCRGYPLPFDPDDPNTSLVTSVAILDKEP
GRIP2_6, Q9C0E4, sequence (Q9C0E4 648-740): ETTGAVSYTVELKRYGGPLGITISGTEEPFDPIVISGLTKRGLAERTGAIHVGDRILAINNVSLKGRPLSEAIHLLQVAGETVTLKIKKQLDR
LNX1_1, Q8TBB1, sequence (Q8TBB1 261-371): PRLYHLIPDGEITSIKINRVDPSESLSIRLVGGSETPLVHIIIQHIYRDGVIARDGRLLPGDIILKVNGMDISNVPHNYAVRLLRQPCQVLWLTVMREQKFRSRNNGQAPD
SCRIB_2, Q14160, sequence (Q14160 857-960): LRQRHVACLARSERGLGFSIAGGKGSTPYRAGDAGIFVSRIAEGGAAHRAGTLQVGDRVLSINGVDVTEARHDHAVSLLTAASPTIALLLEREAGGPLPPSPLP
IL16_3, Q14005, sequence (Q14005 1107-1207): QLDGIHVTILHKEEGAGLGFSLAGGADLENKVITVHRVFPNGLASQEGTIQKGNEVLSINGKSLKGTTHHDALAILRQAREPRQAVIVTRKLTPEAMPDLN
LIMK2, P53671, sequence (P53671 143-248): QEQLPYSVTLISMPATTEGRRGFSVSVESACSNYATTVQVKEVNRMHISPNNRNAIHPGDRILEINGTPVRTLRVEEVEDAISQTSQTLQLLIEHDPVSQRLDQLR
SCRIB_3, Q14160, sequence (Q14160 999-1103): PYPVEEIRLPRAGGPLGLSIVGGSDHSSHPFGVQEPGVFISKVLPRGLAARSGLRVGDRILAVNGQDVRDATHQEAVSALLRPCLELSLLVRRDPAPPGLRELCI
NHERF4_1, Q86UT5-2, sequence (Q86UT5 other isoform, or with tags, fused parts or gaps): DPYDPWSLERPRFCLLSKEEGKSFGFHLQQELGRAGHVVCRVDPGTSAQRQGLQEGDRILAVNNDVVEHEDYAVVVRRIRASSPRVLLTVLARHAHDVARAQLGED

NTANRRTTPV [CACNG2, Q9Y698]
pKd (MAGI2_3, Q86UL8; [1]): below the threshold
pKd (LNX2_2, Q8N448; [1]): below the threshold
pKd (SCRIB_3, Q14160; [1]): 3.92
pKd (PTPN13_1, Q12923; [1]): below the threshold
pKd (SCRIB_2, Q14160; [1]): below the threshold
pKd (DLG3_3, Q92796; [1]): 4.69
pKd (GRIP1_5, Q9Y3R0; [1]): below the threshold
pKd (LNX2_3, Q8N448; [1]): below the threshold
pKd (GRIP2_6, Q9C0E4; [1]): below the threshold
pKd (MPP2, Q14168; [1]): below the threshold
pKd (DFNB31_3, Q9P202; [1]): below the threshold
pKd (LIN7C, Q9NUP9; [1]): below the threshold
pKd (MAGI1_2, Q96QZ7; [1]): 4.72
pKd (LNX1_1, Q8TBB1; [1]): below the threshold
pKd (TJP2_1, Q9UDY2; [1]): 3.9
pKd (LIMK2, P53671; [1]): below the threshold
pKd (PTPN3, P26045; [1]): 4.52
pKd (DVL3, Q92997; [1]): below the threshold
pKd (NHERF3_1, Q5T2W1; [1]): below the threshold
pKd (FRMPD3, Q5JV73; [1]): below the threshold
pKd (GRIP1_7, Q9Y3R0; [1]): below the threshold
pKd (NHERF4_1, Q86UT5-2; [1]): below the threshold
pKd (DFNB31_2, Q9P202; [1]): below the threshold
pKd (DLG1_1, Q12959; [1]): 4.34
pKd (IL16_3, Q14005; [1]): below the threshold
pKd (Inadl_4, Q8NI35; [1]): below the threshold

TQKFRASTAL [FRMPD1, Q5SYB0]
pKd (MAGI2_3, Q86UL8; [2]): below the threshold
pKd (LNX2_2, Q8N448; [2]): below the threshold
pKd (SCRIB_3, Q14160; [2]): 4.59
pKd (PTPN13_1, Q12923; [2]): below the threshold
pKd (SCRIB_2, Q14160; [2]): below the threshold
pKd (DLG3_3, Q92796; [2]): 3.85
pKd (GRIP1_5, Q9Y3R0; [2]): below the threshold
pKd (LNX2_3, Q8N448; [2]): below the threshold
pKd (GRIP2_6, Q9C0E4; [2]): below the threshold
pKd (MPP2, Q14168; [2]): below the threshold
pKd (DFNB31_3, Q9P202; [2]): below the threshold
pKd (LIN7C, Q9NUP9; [2]): 3.52
pKd (MAGI1_2, Q96QZ7; [2]): 4.97
pKd (LNX1_1, Q8TBB1; [2]): below the threshold
pKd (TJP2_1, Q9UDY2; [2]): below the threshold
pKd (LIMK2, P53671; [2]): below the threshold
pKd (PTPN3, P26045; [2]): 4.45
pKd (DVL3, Q92997; [2]): below the threshold
pKd (NHERF3_1, Q5T2W1; [2]): 5.47
pKd (FRMPD3, Q5JV73; [2]): below the threshold
pKd (GRIP1_7, Q9Y3R0; [2]): below the threshold
pKd (NHERF4_1, Q86UT5-2; [2]): 4.47
pKd (DFNB31_2, Q9P202; [2]): below the threshold
pKd (DLG1_1, Q12959; [2]): below the threshold
pKd (IL16_3, Q14005; [2]): below the threshold
pKd (Inadl_4, Q8NI35; [2]): below the threshold

NTLNRKTTPV [CACNG8, Q8WXS5]
pKd (MAGI2_3, Q86UL8; [1]): 3.85
pKd (LNX2_2, Q8N448; [1]): below the threshold
pKd (SCRIB_3, Q14160; [1]): 3.88
pKd (PTPN13_1, Q12923; [1]): below the threshold
pKd (SCRIB_2, Q14160; [1]): 3.62
pKd (DLG3_3, Q92796; [1]): 5.08
pKd (GRIP1_5, Q9Y3R0; [1]): 3.48
pKd (LNX2_3, Q8N448; [1]): below the threshold
pKd (GRIP2_6, Q9C0E4; [1]): below the threshold
pKd (MPP2, Q14168; [1]): below the threshold
pKd (DFNB31_3, Q9P202; [1]): below the threshold
pKd (LIN7C, Q9NUP9; [1]): below the threshold
pKd (MAGI1_2, Q96QZ7; [1]): 4.64
pKd (LNX1_1, Q8TBB1; [1]): 3.66
pKd (TJP2_1, Q9UDY2; [1]): 4.05
pKd (LIMK2, P53671; [1]): below the threshold
pKd (PTPN3, P26045; [1]): 4.98
pKd (DVL3, Q92997; [1]): below the threshold
pKd (NHERF3_1, Q5T2W1; [1]): 3.48
pKd (FRMPD3, Q5JV73; [1]): below the threshold
pKd (GRIP1_7, Q9Y3R0; [1]): 3.49
pKd (NHERF4_1, Q86UT5-2; [1]): 3.67
pKd (DFNB31_2, Q9P202; [1]): below the threshold
pKd (DLG1_1, Q12959; [1]): 4.32
pKd (IL16_3, Q14005; [1]): below the threshold
pKd (Inadl_4, Q8NI35; [1]): below the threshold

PTPDLPQTRV [KLHDC7A, Q5VTJ3]
pKd (MAGI2_3, Q86UL8; [1]): 3.77
pKd (LNX2_2, Q8N448; [1]): below the threshold
pKd (SCRIB_3, Q14160; [1]): below the threshold
pKd (PTPN13_1, Q12923; [1]): below the threshold
pKd (SCRIB_2, Q14160; [1]): 3.48
pKd (DLG3_3, Q92796; [1]): below the threshold
pKd (GRIP1_5, Q9Y3R0; [1]): below the threshold
pKd (LNX2_3, Q8N448; [1]): below the threshold
pKd (GRIP2_6, Q9C0E4; [1]): below the threshold
pKd (MPP2, Q14168; [1]): below the threshold
pKd (DFNB31_3, Q9P202; [1]): 4.1
pKd (LIN7C, Q9NUP9; [1]): 3.49
pKd (MAGI1_2, Q96QZ7; [1]): below the threshold
pKd (LNX1_1, Q8TBB1; [1]): 3.89
pKd (TJP2_1, Q9UDY2; [1]): below the threshold
pKd (LIMK2, P53671; [1]): below the threshold
pKd (PTPN3, P26045; [1]): below the threshold
pKd (DVL3, Q92997; [1]): below the threshold
pKd (NHERF3_1, Q5T2W1; [1]): 4.36
pKd (FRMPD3, Q5JV73; [1]): below the threshold
pKd (GRIP1_7, Q9Y3R0; [1]): below the threshold
pKd (NHERF4_1, Q86UT5-2; [1]): below the threshold
pKd (DFNB31_2, Q9P202; [1]): 3.69
pKd (DLG1_1, Q12959; [1]): below the threshold
pKd (IL16_3, Q14005; [1]): below the threshold
pKd (Inadl_4, Q8NI35; [1]): below the threshold

ARGPPRESEV [FAM110D, Q8TAY7]
pKd (MAGI2_3, Q86UL8; [1]): 3.53
pKd (LNX2_2, Q8N448; [1]): below the threshold
pKd (SCRIB_3, Q14160; [1]): 4.63
pKd (PTPN13_1, Q12923; [1]): below the threshold
pKd (SCRIB_2, Q14160; [1]): 4.9
pKd (DLG3_3, Q92796; [1]): 4.48
pKd (GRIP1_5, Q9Y3R0; [1]): below the threshold
pKd (LNX2_3, Q8N448; [1]): below the threshold
pKd (GRIP2_6, Q9C0E4; [1]): below the threshold
pKd (MPP2, Q14168; [1]): below the threshold
pKd (DFNB31_3, Q9P202; [1]): below the threshold
pKd (LIN7C, Q9NUP9; [1]): 3.67
pKd (MAGI1_2, Q96QZ7; [1]): 4.32
pKd (LNX1_1, Q8TBB1; [1]): 3.78
pKd (TJP2_1, Q9UDY2; [1]): below the threshold
pKd (LIMK2, P53671; [1]): below the threshold
pKd (PTPN3, P26045; [1]): 4.94
pKd (DVL3, Q92997; [1]): below the threshold
pKd (NHERF3_1, Q5T2W1; [1]): 4.03
pKd (FRMPD3, Q5JV73; [1]): below the threshold
pKd (GRIP1_7, Q9Y3R0; [1]): below the threshold
pKd (NHERF4_1, Q86UT5-2; [1]): below the threshold
pKd (DFNB31_2, Q9P202; [1]): 3.57
pKd (DLG1_1, Q12959; [1]): 4.7
pKd (IL16_3, Q14005; [1]): below the threshold
pKd (Inadl_4, Q8NI35; [1]): below the threshold
